Data set [1] concerns HeLa Kyoto. Briefly: melting temperature (median over replicates), in situ; higher = more thermally stable.
Data set [2] relates to HeLa Kyoto. Briefly: thermal stability score vs G1/S (z-score of summed log2 fold changes over temperatures); higher = more thermally stable than in G1/S.
In data set [3] the test system is HeLa Kyoto. Briefly: solubility change mitosis vs G1/S (difference of NP-40 vs SDS log2 ratios) (log2 ratio difference); higher = more soluble in mitosis.
The test system of data set [4] is HeLa Kyoto. Briefly: solubility in G1/S (NP-40 vs SDS abundance) (log2 ratio); higher = more soluble. As to conditions: cell cycle stage: G1/S.
Setting [5] is: cell cycle stage: early G1 (4.5 h after nocodazole release).
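Wherever melting temperature (median over replicates), in situ is given: HeLa Kyoto cells synchronized by double thymidine or nocodazole block, proteins quantified by TMT10plex mass spectrometry, three independent biological replicates.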
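Wherever solubility change mitosis vs G1/S (difference of NP-40 vs SDS log2 ratios) is given: synchronized HeLa Kyoto cells (double thymidine block for G1/S, nocodazole release for mitosis), protein amounts in NP-40 versus SDS lysates quantified by mass spectrometry, three biological replicates.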
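Wherever solubility in G1/S (NP-40 vs SDS abundance) is given: HeLa Kyoto cells arrested at G1/S by double thymidine block, proteins quantified by TMT10plex mass spectrometry in mild NP-40 versus SDS extracts, three biological replicates.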
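Wherever thermal stability score vs G1/S (z-score of summed log2 fold changes over temperatures) is given: synchronized HeLa Kyoto cells, proteins quantified by TMT10plex mass spectrometry, three biological replicates, mitosis taken 0.5 h after nocodazole release, G1/S directly after double thymidine block.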

For “MENMAEEELLPLEKEEVEVAQVQVPTPARDSAGVPAPAPDSALDSAPTPASAPAPAPALAQAPALSPSLASAPEEAKSKRHISIQRQLADLENLAFVTDGNFDSASSLNSDNLDAGNRQACPLCPKEKFRACNSHKLRRHLQNLHWKVSVEFEGYRMCICHLPCRPVKPNIIGEQITSKMGAHYHCIICSATITRRTDMLGHVRRHMNKGETKSSYIAASTAKPPKEILKEADTDVQVCPNYSIPQKTDSYFNPKMKLNRQLIFCTLAALAEERKPLECLDAFGATGIMGLQWAKHLGNAVKVTINDLNENSVTLIQENCHLNKLKVVVDSKEKEKSDDILEEGEKNLGNIKVTKMDANVLMHLRSFDFIHLDPFGTSVNYLDSAFRNIRNLGIVSVTSTDISSLYAKAQHVARRHYGCNIVRTEYYKELAARIVVAAVARAAARCNKGIEVLFAVALEHFVLVVVRVLRGPTSADETAKKIQYLIHCQWCEERIFQKDGNMVEENPYRQLPCNCHGSMPGKTAIELGPLWSSSLFNTGFLKRMLFESLHHGLDDIQTLIKTLIFESECTPQSQFSIHASSNVNKQEENGVFIKTTDDTTTDNYIAQGKRKSNEMITNLGKKQKTDVSTEHPPFYYNIHRHSIKGMNMPKLKKFLCYLSQAGFRVSRTHFDPMGVRTDAPLMQFKSILLKYSTPTYTGGQSESHVQSASEDTVTERVEMSVNDKAEASGCRRW [TRMT1L]”, the melting temperature in data set [1] (cell cycle stage: G1/S) is 51.8 °C; in data set [1] (cell cycle stage: mitosis), 50.9 °C. For the same sequence, the results for the thermal stability score in data set [2] (setting [5]) and in data set [2] (cell cycle stage: mitosis) were -0.774 and -3, respectively. In addition, the “solubility change mitosis (log2)” value in data set [3] was 0.324. For the same sequence, the “solubility in G1/S (log2)” value in data set [4] was -0.537.
Consider “MANSMNGRNPGGRGGNPRKGRILGIIDAIQDAVGPPKQAAADRRTVEKTWKLMDKVVRLCQNPKLQLKNSPPYILDILPDTYQHLRLILSKYDDNQKLAQLSENEYFKIYIDSLMKKSKRAIRLFKEGKERMYEEQSQDRRNLTKLSLIFSHMLAEIKAIFPNGQFQGDNFRITKADAAEFWRKFFGDKTIVPWKVFRQCLHEVHQISSGLEAMALKSTIDLTCNDYISVFEFDIFTRLFQPWGSILRNWNFLAVTHPGYMAFLTYDEVKARLQKYSTKPGSYIFRLSCTRLGQWAIGYVTGDGNILQTIPHNKPLFQALIDGSREGFYLYPDGRSYNPDLTGLCEPTPHDHIKVTQEQYELYCEMGSTFQLCKICAENDKDVKIEPCGHLMCTSCLTAWQESDGQGCPFCRCEIKGTEPIIVDPFDPRDEGSRCCSIIDPFGMPMLDLDDDDDREESLMMNRLANVRKCTDRQNSPVTSPGSSPLAQRRKPQPDPLQIPHLSLPPVPPRLDLIQKGIVRSPCGSPTGSPKSSPCMVRKQDKPLPAPPPPLRDPPPPPPERPPPIPPDNRLSRHIHHVESVPSRDPPMPLEAWCPRDVFGTNQLVGCRLLGEGSPKPGITASSNVNGRHSRVGSDPVLMRKHRRHDLPLEGAKVFSNGHLGSEEYDVPPRLSPPPPVTTLLPSIKCTGPLANSLSEKTRDPVEEDDDEYKIPSSHPVSLNSQPSHCHNVKPPVRSCDNGHCMLNGTHGPSSEKKSNIPDLSIYLKGDVFDSASDPVPLPPARPPTRDNPKHGSSLNRTPSDYDLLIPPLGEDAFDALPPSLPPPPPPARHSLIEHSKPPGSSSRPSSGQDLFLLPSDPFVDLASGQVPLPPARRLPGENVKTNRTSQDYDQLPSCSDGSQAPARPPKPRPRRTAPEIHHRKPHGPEAALENVDAKIAKLMGEGYAFEEVKRALEIAQNNVEVARSILREFAFPPPVSPRLNL [CBLB]”, for which the thermal stability score is -0.843 in data set [2] (setting [5]) and -0.129 in data set [2] (cell cycle stage: mitosis). In data set [3], the “solubility change mitosis (log2)” value came out at 0.0975. Besides, the “solubility in G1/S (log2)” value in data set [4] is -0.447.
Turning to “MFHCIPLWRCNRHVESIDKRHCSLVYVPEEIYRYARSLEELLLDANQLRELPEQFFQLVKLRKLGLSDNEIQRLPPEIANFMQLVELDVSRNEIPEIPESISFCKALQVADFSGNPLTRLPESFPELQNLTCLSVNDISLQSLPENIGNLYNLASLELRENLLTYLPDSLTQLRRLEELDLGNNEIYNLPESIGALLHLKDLWLDGNQLSELPQEIGNLKNLLCLDVSENRLERLPEEISGLTSLTDLVISQNLLETIPDGIGKLKKLSILKVDQNRLTQLPEAVGECESLTELVLTENQLLTLPKSIGKLKKLSNLNADRNKLVSLPKEIGGCCSLTVFCVRDNRLTRIPAEVSQATELHVLDVAGNRLLHLPLSLTALKLKALWLSDNQSQPLLTFQTDTDYTTGEKILTCVLLPQLPSEPTCQENLPRCGALENLVNDVSDEAWNERAVNRVSAIRFVEDEKDEEDNETRTLLRRATPHPGELKHMKKTVENLRNDMNAAKGLDSNKNEVNHAIDRVTTSV [LRRC1]”, the thermal stability score in data set [2] (setting [5]) is -0.136; in data set [2] (cell cycle stage: mitosis) it was -0.881. Also, the “solubility change mitosis (log2)” value in data set [3] was -0.136. Moreover, the “solubility in G1/S (log2)” value in data set [4] is -0.0636.
With “MAKAAASSSLEDLDLSGEEVQRLTSAFQDPEFRRMFSQYAEELTDPENRRRYEAEITALERERGVEVRFVHPEPGHVLRTSLDGARRCFVNVCSNALVGAPSSRPGSGGDRGAAPGSHWSLPYSLAPGREYAGRSSSRYMVYDVVFHPDALALARRHEGFRQMLDATALEAVEKQFGVKLDRRNAKTLKAKYKGTPEAAVLRTPLPGVIPARPDGEPKGPLPDFPYPYQYPAAPGPRAPSPPEAALQPAPTEPRYSVVQRHHVDLQDYRCSRDSAPSPVPHELVITIELPLLRSAEQAALEVTRKLLCLDSRKPDYRLRLSLPYPVDDGRGKAQFNKARRQLVVTLPVVLPAARREPAVAVAAAAPEESADRSGTDGQACASAREGEAGPARSRAEDGGHDTCVAGAAGSGVTTLGDPEVAPPPAAAGEERVPKPGEQDLSRHAGSPPGSVEEPSPGGENSPGGGGSPCLSSRSLAWGSSAGRESARGDSSVETREESEGTGGQRSACAMGGPGTKSGEPLCPPLLCNQDKETLTLLIQVPRIQPQSLQGDLNPLWYKLRFSAQDLVYSFFLQFAPENKLSTTEPVISISSNNAVIELAKSPESHGHWREWYYGVNNDSLEERLFVNEENVNEFLEEVLSSPFKQSMSLTPPLIEVLQVTDNKIQINAKLQECSNSDQLQGKEERVNEESHLTEKEYIEHCNTPTTDSDSSIAVKALQIDSFGLVTCFQQESLDVSQMILGKSQQPESKMQSEFIKEKSATCSNEEKDNLNESVITEEKETDGDHLSSLLNKTTVHNIPGFDSIKETNMQDGSVQVIKDHVTNCAFSFQNSLLYDLD [DNAAF2]”, the thermal stability score is -0.286 in data set [2] (setting [5]) and -0.17 in data set [2] (cell cycle stage: mitosis). The “solubility change mitosis (log2)” value in data set [3] is 0.11. For the same sequence, the “solubility in G1/S (log2)” value in data set [4] is -0.0763.
On to “MAALTIATGTGNWFSALALGVTLLKCLLIPTYHSTDFEVHRNWLAITHSLPISQWYYEATSEWTLDYPPFFAWFEYILSHVAKYFDQEMLNVHNLNYSSSRTLLFQRFSVIFMDVLFVYAVRECCKCIDGKKVGKELTEKPKFILSVLLLWNFGLLIVDHIHFQYNGFLFGLMLLSIARLFQKRHMEGAFLFAVLLHFKHIYLYVAPAYGVYLLRSYCFTANKPDGSIRWKSFSFVRVISLGLVVFLVSALSLGPFLALNQLPQVFSRLFPFKRGLCHAYWAPNFWALYNALDKVLSVIGLKLKFLDPNNIPKASMTSGLVQQFQHTVLPSVTPLATLICTLIAILPSIFCLWFKPQGPRGFLRCLTLCALSSFMFGWHVHEKAILLAILPMSLLSVGKAGDASIFLILTTTGHYSLFPLLFTAPELPIKILLMLLFTIYSISSLKTLFRKEKPLFNWMETFYLLGLGPLEVCCEFVFPFTSWKVKYPFIPLLLTSVYCAVGITYAWFKLYVSVLIDSAIGKTKKQ [ALG8]”, for which the thermal stability score in data set [2] (setting [5]) was -0.785; in data set [2] (cell cycle stage: mitosis), -1.28. Further, in data set [3], the “solubility change mitosis (log2)” value was -0.131. Also, the “solubility in G1/S (log2)” value in data set [4] was -0.668.

The values are drawn from the supplement of paper PMC5998384.
